Reference: article PMC3262814, “Purification and Activity Testing of the Full-Length YycFGHI Proteins of Staphylococcus aureus” (PLoS ONE, 2012)
Substitutions are numbered along the chain they refer to. Numbers in names are those of the source. Where “and” joins values, the source holds several entries; their conditions need not be identical. Identical values can stand only once.

B1: YycG-C-His6 (enzyme, Staphylococcus aureus SA137/93A)
chain: MGMKWLKQLQSLHTKLVIVYVLLIIIGMQIIGLYFTNNLEKELLDNFKKNITQYAKQLEISIEKVYDEKGSVNAQKDIQNLLSEYANRQEIGEIRFIDKDQIIIATTKQSNRSLINQKANDSSVQKALSLGQSNDHLILKDYGGGKDRVWVYNIPVKVDKKVIGNIYIESKINDVYNQLNNINQIFIVGTAISLLITVILGFFIARTITKPITDMRNQTVEMSRGNYTQRVKIYGNDEIGELALAFNNLSKRVQEAQANTESEKRRLDSVITHMSDGIIATDRRGRIRIVNDMALKMLGMAKEDIIGYYMLSVLSLEDEFKLEEIQENNDSFLLDLNEEEGLIARVNFSTIVQETGFVTGYIAVLHDVTEQQQVERERREFVANVSHELRTPLTSMNSYIEALEEGAWKDEELAPQFLSVTREETERMIRLVNDLLQLSKMDNESDQINKEIIDFNMFINKIINRHEMSAKDTTFIRDIPKKTIFTEFDPDKMTQVFDNVITNAMKYSRGDKRVEFHVKQNPLYNRMTIRIKDNGIGIPINKVDKIFDRFYRVDKARTRKMGGTGLGLAISKEIVEAHNGRIWANSVEGQGTSIFITLPCEVIEDGDWDE
notes: two additional residues (Met-Gly) at the N-terminus, from the NcoI site placed in frame; Cloned NcoI/XhoI into pET22bΔpelB; also called WalK; VicK; source: E. coli C41(DE3) or C43(DE3) pREP4groESL(MT), purified from the membrane fraction (DDM, Ni-NTA); not shown: His6, C-terminal, kept
B2: YycG(Y306N)-C-His6 (enzyme)
chain: B1 chain with Y308N
notes: two additional residues (Met-Gly) at the N-terminus, from the NcoI site placed in frame; YycG (WalK/VicK) sensor histidine kinase of Staphylococcus aureus with the exchange Y306N (nucleotide exchange T916A) in the cytoplasmic PAS domain; Cloned NcoI/XhoI into pET22bΔpelB; also called mutant kinase; mutated YycG kinase; source: E. coli C41(DE3) or C43(DE3) pREP4groESL(MT), purified from the …

Key:
[1] = target: YycI-C-His6 (Staphylococcus aureus SA137/93A); assay: native gel or EMSA; blue native PAGE (BN-PAGE) of single proteins; 4-20% Tris-HCl gradient gel; 5 µg of YycF, YycH, YycI or 10 µg of YycG, YycG(Y306N) in 10 µl dialysis buffer I (50 mM NaH2PO4, 300 mM NaCl, 50% glycerol, pH 8) with Coomassie Brilliant Blue R250; 80 V, 4-7°C; masses calibrated with soluble markers and a conversion factor
[2] = target: the molecule itself; assay: as above

Row | Molecule | stoichiometry N [1] | stoichiometry N [2]
1 | YycI-C-His6 (natural protein) | < 6 | 
2 | B1 |  | 2 and 3 and 4
3 | B2 |  | 2 and 3 and 4
